This assay concerns the target SARS-CoV-2 spike (SARS-CoV-2, reference (Wuhan-Hu-1) …, UniProt P0DTC2). In words: ELISA.

B1: DH1047 IgG (antibody, V domains shown)
VH: QVQLVQSGAEVKKPGASVQVSCQASANTFTNHYIHWVRQAPGQGLEWMGIIYPTGGNTIYAQGFQGRVTMTRDTSLNTIYLELSSLRSEDTAVYYCARDVRVDDSWSGYDLLSGGTYFDYWGQGTLVTVSS
VL: not shown
Take B1: the binding result is given as “binds”.

The values above are taken from article PMC8095197 (bioRxiv, 2021).
